Measurements from US6090388.
Like-named read-outs stand apart in the source and are kept apart here.

Tests used:
[1] = target: gp120 of HIV-1 primary isolate TH036 (clade E) (HIV-1)
[2] = target: gp120 of HIV-1 primary isolate VL 135 (clade B) (HIV-1)
[3] = target: gp120 of HIV-1 primary isolate UG029 (clade A) (HIV-1)
[4] = target: gp120 of HIV-1 primary isolate ZIM 748 (clade C) (HIV-1)
[5] = target: gp120 of HIV-1 primary isolate UG266 (clade D) (HIV-1)
[6] = target: human CD4 on the surface of CD4-expressing T cells (human)
[7] = target: human CD4 on the surface of CD4-expressing T cells (human); remark: listed apart in the source
[8] = target: human CD4 on the surface of CD4-expressing T cells (human); experiment: IFA on MT2 T cells
[9] = target: human CD4 on the surface of CD4-expressing T cells (human); experiment: B4-biotin + FITC-avidin on MT2 T cells after medium alone

| Substance | 90% neutralization, MT-2 microplaque assay, HIV-1 TH036 [1] [µg/mL] | 90% neutralization, MT-2 microplaque assay, HIV-1 VL 135 [2] [µg/mL] | 90% neutralization, MT-2 microplaque assay, HIV-1 UGO29 [3] [µg/mL] | 90% neutralization, MT-2 microplaque assay, HIV-1 ZIM 748 [4] [µg/mL] | 90% neutralization, MT-2 microplaque assay, HIV-1 UG266 [5] [µg/mL] | 90% neutralization, MT-2 microplaque assay, HIV-1 DH12 (clade B) [6] [µg/mL] | 90% neutralization, MT-2 microplaque assay, HIV-1 TH036 (clade E) [6] [µg/mL] | 90% neutralization, MT-2 microplaque assay, HIV-1 UG266 (clade D) [6] [µg/mL] | 90% neutralization, MT-2 microplaque assay, HIV-1 UGO29 (clade A) [6] [µg/mL] | 90% neutralization, MT-2 microplaque assay, HIV-1 VL 135 (clade B) [6] [µg/mL] | 90% neutralization, MT-2 microplaque assay, HIV-1 ZIM 748 (clade C) [6] [µg/mL] | % Pos cells [7] [%] | % Pos cells [8] [%] | % Pos cells [9] [%] |
| --- | --- | --- | --- | --- | --- | --- | --- | --- | --- | --- | --- | --- | --- | --- |
| recombinant human monoclonal antibody IgG1 b12 | > 50 | 41.7 | 38.5 | > 50 | > 50 |  |  |  |  |  |  |  |  |  |
| monoclonal antibody B4 |  |  |  |  |  | 2.1 | 3.32 | 25.6 | 6.76 | 1.54 | 2.82 | 0 | > 95 | > 95 |
